Results reported in patent WO2007023782A1 (dated 2007).

Key:
[1] = target: T1, nmAb-KT (neutralizing monoclonal antibody against HM-1 killer toxin); assay: SPR (BIAcore X), nmAb-KT immobilised; ratio of Ka values
T1 construct: also called nmb-KT; HM-1 neutralizing monoclonal antibody

[2] = target: T1, nmAb-KT (neutralizing monoclonal …); assay: SPR (BIAcore X), nmAb-KT immobilised on CM5 chip; Ka = kon/koff
[3] = target: T2, BSA (Bovine serum albumine) (bovine, UniProt P02769 25-607); assay: SPR (BIAcore X), BSA negative control
T2 construct: Negative control; also called negative control

[4] = target: T1, nmAb-KT (neutralizing monoclonal …); assay: SPR (BIAcore X), nmAb-KT immobilised, differs in the last digit from Table 2
[5] = target: T1, nmAb-KT (neutralizing monoclonal …); assay: SPR (BIAcore X), nmAb-KT immobilised on CM5 chip, ScFv 15.75-250 nM as analyte, 25 C, HBS-EP
[6] = target: T1, nmAb-KT (neutralizing monoclonal …); assay: SPR (BIAcore X), nmAb-KT immobilised, rounded against Table 2

T2 sequence (P02769 25-607 limits assumed): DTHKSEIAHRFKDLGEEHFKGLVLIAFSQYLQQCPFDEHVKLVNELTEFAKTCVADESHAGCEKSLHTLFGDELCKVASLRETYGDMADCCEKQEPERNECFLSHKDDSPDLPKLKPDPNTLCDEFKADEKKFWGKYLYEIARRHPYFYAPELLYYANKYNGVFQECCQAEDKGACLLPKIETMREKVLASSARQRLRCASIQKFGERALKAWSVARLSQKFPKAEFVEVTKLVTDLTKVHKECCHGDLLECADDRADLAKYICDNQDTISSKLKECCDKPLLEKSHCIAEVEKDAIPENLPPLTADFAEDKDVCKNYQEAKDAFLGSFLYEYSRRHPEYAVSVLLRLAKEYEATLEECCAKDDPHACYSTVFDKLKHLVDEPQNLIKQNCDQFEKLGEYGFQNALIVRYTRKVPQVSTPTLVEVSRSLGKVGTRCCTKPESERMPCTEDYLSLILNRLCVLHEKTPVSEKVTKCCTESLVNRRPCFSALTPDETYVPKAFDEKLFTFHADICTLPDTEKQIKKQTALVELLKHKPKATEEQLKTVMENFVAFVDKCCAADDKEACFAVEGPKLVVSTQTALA

Binder	fold of affinity constant Ka against ScFv-A1 or ScFv-A4 [1]	fold of affinity constant Ka against ScFv-A3 [1]	Ka [2]	binding result [3]	Ka [4]	koff [5]	kon [5]	Ka [6]
ScFv-A2 (scFv, V domains shown, Mouse anti-idiotypic single chain Fv, VH-(Gly4Ser)3 linker-VL, with a C-terminal E-Tag; also called ScFv KTIdAb; anti-idiotypic ScFv) VH: QVKLQQSGAELMKPGASVKISCKATGYTFSSYWIEWVKQRPGHGLEWIGEILPGSGSTNYNEKFKGKATFTADTSSNTAYMQLSSLTSEDSAVYYCARYYGNYYAMDYWGQGTTVTVSS	~1.2 fold	~2 fold	6.66e+07 M⁻¹	no binding (tested: 15.75 nM-250 nM ScFv)	6.65e+07 M⁻¹	0.00458 s⁻¹	305000 M⁻¹ s⁻¹	
ScFv-A1 (scFv, also called ScFv-Al; ScFv KTIdAb) scFv: MAQVKLQQSGAELMKPGASVKISCKATGYTFSSYWIEWVKQRPGHGLEWIGEILPGSGSTNYNEKFKGKATFTADTSSNTAYMQLSSLTSEDSAVYYCARYYGNYYAMDYWGQGTTVTVSSGGGGSGGGGSGGGGSDIVLTQSPAIMSASPGEKVTITCSVSSSISSSNLHWYQQKSETSPKPWIYGTSNLASGVPGRFSGSGSGNSYSLTISSMEAEDVATYYCFQGSGYPLTFGSGTKLEIKRAAAGAPVPYPDPLEPR			4.79e+07 M⁻¹	no binding (tested: 15.75 nM-250 nM ScFv)		0.00507 s⁻¹	243000 M⁻¹ s⁻¹	4.8e+07 M⁻¹
ScFv-A3 (scFv, Mouse anti-idiotypic single chain Fv, VH-(Gly4Ser)3 linker-VL, with a C-terminal E-Tag; also called ScFv KTIdAb; anti-idiotypic ScFv) scFv: MAQVKLQQSGAELMKPGASVKISCKATGYTFSSYWIEWVKQRPGHGLEWIGEILPGSGSTNYNEKFKGKATFTADTSSNTAYMQLSSLTSEDSAVYYCARYYGNYYAMDYWGQGTTVTVSSGGGGSGGGGSGGGGSDIVLTQSPAIMSASPGEKVTITCSVSSSRSSSNLHWYQQKSETSPKPWIYGTSNLASGVPGRFSGSGSGKLLLSHDQQHEAEDVATYYCFQGSGYPLTFGSGTKLEIKRAAAGAPVPYPDPLEPR			3.05e+07 M⁻¹	no binding (tested: 15.75 nM-250 nM ScFv)	3.04e+07 M⁻¹	0.00751 s⁻¹	229000 M⁻¹ s⁻¹	
ScFv-A4 (scFv, Mouse anti-idiotypic single chain Fv, VH-(Gly4Ser)3 linker-VL, with a C-terminal E-Tag; also called ScFv KTIdAb; anti-idiotypic ScFv) scFv: MAQVKLQQSGAELMKPGASVKISCKATGYTFSSYWIEWVKQRPGHGLEWIGEILPGSGSTNYNEKFKGKATFTADTSSNTAYMQLSSLTSEDSAVYYCARYYGNYYAMDYWGQGTTVTVSSGGGGSGGGGSGGGGSDIVLTQSPAIMSASPGEKSPSPAVSAQVYVPATCTGTSRSQKPPPNPGFMAHPTWLLESQVASVAVGLENSYSLTISSMEAEDVATYYCFQGSGYPLTFGSGTKLEIKRAAAGAPVPYPDPLEPR			4.48e+07 M⁻¹	no binding (tested: 15.75 nM-250 nM ScFv)		0.005 s⁻¹	224000 M⁻¹ s⁻¹	
